Experiments:
cancer cells [1] = assay: ELANE internalization by cancer cells and effect of endocytosis inhibitor; type: cell-based
Experimental: (§1) FIGS. 1A-1K. ELANE cleaves CD95 to selectively kill cancer cells. (A): Heatmap summary of ELANE's effects on survival, stress, and apoptosis pathways in cancer cells and healthy cells. (B-C): Cancer cells were treated with ELANE (100 nM) and CD95 cleavage was assessed by western blotting using anti-N-terminal (B) or anti-C-terminal antibodies (C). *, lower molecular weight CD95 fragment. (D): Cancer cells or non-cancer cells were transduced to overexpress CD95 proteins, and effects on ELANE-mediated apoptosis were quantified by ANXAS at 30 min. n=2/group. See FIG. 1I for transduction and CD95 over-expression. (E): Cleavage of recombinant human CD95 N-terminal (aa 1-173) or C-terminal (aa 212-335) proteins by ELANE was assessed by SDS-PAGE and Coomassie blue staining. (F): Bands from (E) were digested with trypsin and analyzed by mass spectrometry to identify putative ELANE cleavage sites (i.e., peptides with non-tryptic ends). Major non-tryptic peptides were quantified by ion chromatograms. (G): Schematic of ELANE cleavage sites in CD95. […] (H): Cleavage of recombinant peptides corresponding to aa 214-231 and aa 317-335 in CD95 by ELANE was monitored by mass spectrometry. (I): Cancer cells or non-cancer cells were treated with fluorescein-labeled ELANE for 10 min and uptake was visualized by immunofluorescence. (J): ELANE catalytic activity in cancer cell lysates following exposure to ELANE for 30 mins in the presence and absence of Dynasore (60 μM endocytosis inhibitor). Effect of Dynasore on cancer cell killing capability of ELANE (measured by calcein-AM). n=6/group. (K): Cancer cells or non-cancer cells were transduced to overexpress various CD95 proteins, and cell viability in the absence of ELANE was determined by calcein-AM. n=10/group. *, p<0.05 Student's t-test.

MDA-MB-231 cells = assay: Doxycycline-inducible Tet-on expression of C or C1-2 in MDA-MB-231 cells; type: cell-based, human; conditions: Tet-on MDA-MB-231, doxycycline 0.2 or 2 μg/mL, 72 h, Calcein AM
Experimental: FIG. 4 Inducible Expression System. Scheme of doxycycline inducible Tet-on system to express either C (aa. 157-335) or C1-2 (aa. 221-331). C1-2 (DD containing fragment) upon addition of doxycycline (both in vitro and in vivo).
FIG. 5 Confirmation of C1-2 expression and cancer cell selective killing. (A) Tet-on C or C1-2 transduced MDA-MB-231 cells were treated with 2 μg/mL doxycycline (2 μg/mL) for 24 h. Cell lysates were collected for western blot. Confirming the expression of C or C1-2 expression. (B) Tet-on C or C1-2 transduced MDA-MB-231 cells were treated with 0.2 or 2 μg/mL doxycycline for 72 h. Cell viability was measured by Calcein AM. […] (C) Tet-on C1-2 transduced MCF10A cells were treated with 2 μg/mL doxycycline. Cell viability was measured at various time points by Calcein AM.
FIG. 6 In vitro testing MDA-MB-231 cell death post C1-2 induction. (A) Various single colony of Tet-on C1-2 transduced MDA-MB-231 cells were treated with 2 μg/mL doxycycline (2 μg/mL) for 72 h. Cell viability was measured by Calcein AM. Different colonies have different susceptibility of death post C1-2 induction. (B) C1-2 expression of various single colony of Tet-on C1-2 transduced MDA-MB-231 cells post doxycycline treatment were measured by western blot (C), and the level at 24 h was correlated with % death (normalized by full length). […] (C) Immunoblot of C1-2 and full length (FL) CD95 expression for various colony.

[2] = system: human and murine cancer cells; assay: CD95 overexpression, ELANE-mediated apoptosis (ANXA5); type: cell-based; conditions: ELANE 40 nM, ANXA5 at 30 min
Experimental: FIGS. 2A-2D Overexpressing CD95 proteins accelerates cancer cell killing by ELANE. Polycistronic adenoviral vectors were prepared to express the human and mouse CD95 sequences followed by the Encephalomyocarditis virus (EMCV) internal ribosome entry site and dTomato sequence under the control of the cytomegalovirus (CMV) promoter. Human and murine cancer cells or non-cancer cells were transduced to over-express full-length CD95, N-terminal CD95 (human: aa 1-209; mouse: aa 1-204), or C-terminal CD95 (human: aa 212-335; mouse: aa 204-327). (A): Transduction efficiency quantified by dTomato (Left). CD95 levels in dTomato− and dTomato+ cells quantified by geometric mean (MFI) (Middle). ANXA5 levels in dTomato− and dTomato+ cells 30 min after treatment with ELANE (40 nM) (Right). Representative data for A549 cells are shown. (B-C): Quantification of transduction efficiency (B) and relative CD95 overexpression (C) for cancer cells and non-cancer cells. (D): Quantification of ANXA5 levels following ELANE treatment (40 nM, 30 min) for mouse cancer cell lines (E0771, B16F10). *, p<0.05 Student's t-test.
(§2) In vitro cell viability assays. […] Luminescence was measured using a Victor X3 luminometer (PerkinElmer).
(§3) CD95 overexpression studies. Polycistronic adenoviral vectors were prepared to express the human and mouse CD95 sequences followed by the Encephalomyocarditis virus (EMCV) internal ribosome entry site and dTomato sequence under the control of the cytomegalovirus (CMV) promoter (VectorBuilder). Human and murine cancer cells or normal or non-cancer cells were transduced to over-express full-length CD95, N-terminal CD95 (human: aa 1-209; mouse: aa 1-204), C-terminal CD95 (human: aa 212-335; mouse: aa 204-327), or C-terminal CD95 that mimicked ELANE cleavage at site 1 (human: aa 221-335), site 2 (human: aa 212-331), or both sites (aa 221-331). Cancer cells or normal or non-cancer cells were transduced with adenoviruses at an MOI of 50-250 depending on cell type, and expression of dTomato and CD95 (human: 558814; mouse, mouse: 565130, BD Biosciences) were confirmed by flow cytometry. A vector encoding GFP (Vector Builders) was used as a control.

cancer cells [3] = assay: CD95 protein overexpression in cancer cells, viability in absence of ELANE (calcein-AM); type: cell-based, human; conditions: transient overexpression
Experimental: as §1, §2, §3

[4] = system: tumors (MDA-MB-231, A549, MEL888, M1, 4195, E0771, LLC1, B16F10); assay: Intra-tumoral treatment of tumor models (xenograft, PDX, syngeneic); type: in vivo, mice; conditions: E0771 TNBC model, IT, 12 μg/day
Experimental: Tumor inoculation and treatment. MDA-MB-231 cells (2×10^6), A549 cells (2×10^6) with Matrix Type 3), or MEL888 cells (2×10^6 with Matrix Type 3) were injected into athymic nude mice (Charles River); M1 or 4195 cells (50,000) were injected into NOD.SCID mice (JAX); and E0771 cells (0.5×10^6), LLC1 cells (0.5×10^6), or B16F10 cells (1×10^6), were injected into C57BL/6 mice (JAX). For TNBC models (MDA-MB-231, E0771, M1, 4195), cells were injected into the 4th mammary fat pad of the right ventral side. For all other models (A549, LLC1, MEL888, B16F10), cells were injected into the flank. Once tumors reached ˜100 mm^3, ELANE or PMSF-ELANE (11.6 μg/100 μL), or neutrophil medias or HSA (50 μg/100 μL) were delivered IT once/day for 5 days. Tumor volume was assessed by calipers, and experiments were terminated when tumor volume in control mice reached >1000 mm^3.
Tumor immunohistochemistry. Tumors were fixed in 4% paraformaldehyde in PBS for 24 h, embedded in paraffin blocks, and sectioned (5 μm). Slides were stained with cCASP3 (9661) and cPARP (9625) antibodies from Cell Signaling Technology. Signals were developed using the VECTASTAIN ABC kit (Vector Laboratories) or fluorescently-labeled secondary antibodies (melanoma models). For the TUNEL assay, staining was performed with the DeadEnd™ colorimetric or fluorometric TUNEL systems (Promega). Cell nuclei were labeled with haematoxylin or Hoechst 33342 (ThermoFisher Scientific). Images were obtained with a Nikon Eclipse Ti2 microscope and analyzed using NIS-Elements software.

[5] = system: human/murine cancer cells; assay: In vitro cell viability of cancer cells (calcein-AM, CASP3, ANXA5); type: cell-based; conditions: catalytic inactivation confirmed
From the text: Cell lines. The ovarian cancer cell lines—CAOV3, OVCAR3, OVCAR4, OVCAR5, A2780, A2780/CP70, HeyA8, TykNu, SKOV3, ID8, and ID8p53-/- were a gift from Dr. Ernst Lengyel, University of Chicago. The breast cancer cell lines—MDA-MB-231, MDA-MB-231.BM1, MCF-7, M6C, E0771, and E0771.LMB were a gift from Dr. Marsha Rosner, University of Chicago. The colon carcinoma cell line RKO, glioblastoma cancer cell line T98G, osteosarcoma cell lines U-2OS and Saos-2, and the hepatocellular carcinoma cell line HepG2 were a gift from Dr. Kay McLeod, University of Chicago. The lung cancer cell line NCI-H552 was a gift from Dr. Stephanie Huang, University of Chicago, and A549 and LLC1 cells were purchased from ATTC. The melanoma cell lines—B16F10, Mel888, Mel1106, and SK-MEL-28 cells were a gift from Dr. Thomas Gajewski, University of Chicago. The pancreatic cancer cell line PANC1 was a gift from Dr. Yamuna Krishnan, University of Chicago. The leukemia cell line K562 was a gift from Dr. Amittha Wickrema, University of Chicago.
The prostate cancer cell lines—CWR22Rv1, LAPC4, and LNCaP were a gift from Dr. Donald Vander Griend, University of Chicago. The neuroblastoma cell lines—SK-N-BE(2) and NBL-WN cells were a gift from Dr. Lucy Godley, University of Chicago.
Neutrophil media collections. Freshly isolated human or murine neutrophils were plated in serum-free DMEM for 24 h. Conditioned media was collected, spun at 500×g for 5 min, and media protein levels were determined with a Bradford assay (Biorad).
PMN media manipulations. For boiling, PMN media was boiled at 95° C. for 5 min and spun at 15,000×g for 10 min to remove precipitated proteins. For dialysis, PMN media was placed into a Slide-a-Lyzer™ cassette (3.5 kDa cutoff, ThermoFisher Scientific) and dialyzed against 2×4L of PBS at 4° C. for 4 h. For PMSF-inactivation, PMN media was treated with PMSF (1 mM, Sigma) or A1AT (42 nM, Athens Research & Technology) and incubated at room temperature for up to 2 h. Residual PMSF was eliminated with a PD-10 desalting column (GE Healthcare Life). Inhibition of ELANE catalytic activity was confirmed using a chromogenic substrate activity assay (see below). For serum-spiking experiments, human, mouse, or fetal bovine serum (1% or 10%) was added to PMN media prior to or after exposing cancer cells. For immune-depletion studies, ELANE or ECP were immunoprecipitated using anti-ELANE (N2C3, GeneTx) or anti-ECP (MB S2535165, MyBioSource) coupled to Pierce™ Protein A/G Magnetic Beads (ThermoFisher Scientific).
as §2

O=C(N/N=C/c1ccc(O)c(O)c1)c1cc2ccccc2cc1O [Dynasore]
effect on PMN media-mediated killing (cancer cells [1]; Dynasore): protected cancer cells from PMN media-mediated killing | effect on ELANE uptake (cancer cells [1]; Dynasore 60 μM): attenuated ELANE uptake | effect on ELANE-induced apoptosis of cancer cells (cancer cells [1]; Dynasore 60 μM): protected cancer cells from apoptosis

B1: C peptide: C-terminal CD95 peptide containing both cleavage sites (aa. 212-335); Tet-on C printed as aa. 157-335 (protein)
chain: SPTLNPETVAINLSDVDLSKYITTIAGVMTLSQVKGFVRKNGVNEAKIDEIKNDNVQDTAEQKVQLLRNWHQLHGKKEAYDTLIKDLKKANLCTLAEKIQTIILKDITSDSENSNFRNEIQSLV
cell death/apoptosis on doxycycline-induced expression (MDA-MB-231 cells): did not | cell death/apoptosis on doxycycline-induced expression (MDA-MB-231 cells; listed as C): not C caused MDA-MB-231 cell death | effect of overexpression on ELANE-mediated killing [2]: accelerated ELANE-mediated killing in human cancer cells | effect of overexpression on ELANE-mediated killing ([2]; listed as aa. 212-335 of SEQ ID NO:1): accelerated ELANE-mediated killing in both human and murine cancer cells | cancer cell death/toxicity on expression in the absence of ELANE (cancer cells [3]): not toxic

B2: PMSF-ELANE: ELANE inactivated with PMSF (or A1AT) (protein, UniProt P08246 30-267, looked up)
Neutrophil elastase: IVGGRRARPHAWPFMVSLQLRGGHFCGATLIAPNFVMSAAHCVANVNVRAVRVVLGAHNLSRREPTRQVFAVQRIFENGYDPVNLLNDIVILQLNGSATINANVQVAQLPAQGRRLGNGVQCLAMGWGLLGRNRGIASVLQELNVTVVTSLCRRSNVCTLVRGRQAGVCFGDSGSPLVCNGLIHGIASFVRGGCASGLYPDAFAPVAQFVNWIDSIIQRSEDNPCPHPRDPDPASRTH
modifications: PMSF-inactivated
therapeutic benefit, dose finding [4]: did not produce unexpected worsening | cancer cell killing after inactivation with PMSF or A1AT [5]: could no longer kill cancer cells

B3: fluorescein-labeled ELANE: fluorescein-labeled ELANE used for uptake (protein, UniProt P08246 30-267, looked up)
Neutrophil elastase: B2 Neutrophil elastase
modifications: fluorescein label
notes: fluorescein-labeled ELANE used for uptake
uptake by cancer cells (cancer cells [1]; 10 min, immunofluorescence): rapidly internalized

Source: patent publication US12611443B2, “Methods and compositions related to therapeutic peptides for cancer therapy” (THE UNIVERSITY OF CHICAGO, priority 2018, dated 2026)
